Reference: publication PMC7566471, “A new perspective on the interaction between the Vg/VGLL1-3 proteins and the TEAD transcription factors” (Scientific Reports, 2020)
Substitutions are numbered along the chain they refer to. Where two headings read alike, the source gives them in different places.

T1: wt^Sd (Scalloped 223–440), N-biotinylated-Avitagged (Drosophila melanogaster, UniProt P30052 223-440, biotin on the Avi-tag; acylated (incubated with myristoyl coenzyme A; purified as a mixture of acylated and non-acylated proteins))
T1 construct: Immobilised on SPR sensor chips by the biotinylated Avi-tag; also called Sd^223–440; source: E. coli BL21(DE3) with a BirA plasmid, purified (HisTrap, HRV 3C cleavage, Superdex 75); not shown: His6, N-terminal, cleaved; Avi-tag, N-terminal, kept
T1 sequence (looked up): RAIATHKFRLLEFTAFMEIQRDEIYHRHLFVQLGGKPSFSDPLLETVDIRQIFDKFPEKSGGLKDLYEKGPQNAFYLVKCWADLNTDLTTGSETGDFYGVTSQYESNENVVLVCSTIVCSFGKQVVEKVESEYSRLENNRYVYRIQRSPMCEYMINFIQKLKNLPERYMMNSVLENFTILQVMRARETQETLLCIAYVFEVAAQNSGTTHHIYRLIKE

T2: Asp276Ala^Sd (Scalloped 223–440), biotinylated Avi-tagged (Drosophila melanogaster, UniProt P30052 223-440, Asp276Ala, biotin on the Avi-tag; incubated with myristoyl coenzyme A)
T2 construct: Scalloped (Sd), Drosophila melanogaster, UniProt P30052, amino acids 223–440, with Asp276Ala; also called Asp246Ala^Sd (as printed in two sentences); source: E. coli BL21(DE3) with a BirA plasmid, purified (HisTrap, HRV 3C cleavage, Superdex 75); not shown: His6, N-terminal, cleaved; Avi-tag, N-terminal, kept
T2 sequence (looked up): T1 sequence (looked up) with D54A

T3: Tyr435His^Sd (Scalloped 223–440), biotinylated Avi-tagged (Drosophila melanogaster, UniProt P30052 223-440, Tyr435His, biotin on the Avi-tag; incubated with myristoyl coenzyme A)
T3 construct: Scalloped (Sd), Drosophila melanogaster, UniProt P30052, amino acids 223–440, with Tyr435His; source: E. coli BL21(DE3) with a BirA plasmid, purified (HisTrap, HRV 3C cleavage, Superdex 75); not shown: His6, N-terminal, cleaved; Avi-tag, N-terminal, kept
T3 sequence (looked up): T1 sequence (looked up) with Y213H

B1: Yki^41–79 (peptide, UniProt Q45VV3 41-79, looked up)
peptide: Ac-TDDNLQALFDSVLNPGDAKRPLQLPLRMRKLPNSFFTPP-NH2
notes: Yorkie (Yki), Drosophila melanogaster, UniProt Q45VV3, residues 41–79 (lacks the putative β-strand); source: synthetic peptide, bought: Biosynthan
B2: VGLL2^85–149 (peptide)
peptide: Ac-CVLFTYFQGDISSVVDEHFSRALSQPSSYSPSCTSSKAPRSSGPWRDCSFPMSQRSFPASFWNSA-NH2
B3: Vg^263–382 (domain or fragment, Drosophila melanogaster, UniProt Q26366 263-382, looked up)
chain: ETPMGSGGGGLAGSGQGQAQYLSASCVVFTNYSGDTASQVDEHFSRALNYNNKDSKESSSPMSNRNFPPSFWNSNYVHPIPAPTHHQVSDLYGTATDTGYATDPWVPHAAHYGSYAHAAH
notes: Vestigial (Vg), Drosophila melanogaster, UniProt Q26366, amino acids 263–382; also called Vestigial 263–382; source: E. coli (BL21(DE3) and NiCo21(DE3) are both named), purified (HisTrap, HRV 3C cleavage, Superdex 75); not shown: His-tag, N-terminal, cleaved; strep-tagII, N-terminal, cleaved; rubredoxin, N-terminal, cleaved
B4: Vg^288–337 (peptide, UniProt Q26366 288-337, looked up)
peptide: Ac-CVVFTNYSGDTASQVDEHFSRALNYNNKDSKESSSPMSNRNFPPSFWNSN-NH2
notes: source: synthetic peptide, bought: Biosynthan
B5: Yki^30–146 (domain or fragment, Drosophila melanogaster, UniProt Q45VV3 30-146, looked up)
chain: SNNLVVRVNQDTDDNLQALFDSVLNPGDAKRPLQLPLRMRKLPNSFFTPPAPSHSRANSADSTYDAGSQSSINIGNKASIVQQPDGQSPIAAIPQLQIQPSPQHSRLAIHHSRARSS
notes: Yorkie (Yki), Drosophila melanogaster, UniProt Q45VV3, amino acids 30–146; also called Yorkie 30–146; source: E. coli (BL21(DE3) and NiCo21(DE3) are both named), purified (HisTrap, HRV 3C cleavage, Superdex 75); not shown: His-tag, N-terminal, cleaved; strep-tagII, N-terminal, cleaved; rubredoxin, N-terminal, cleaved
B6: Vg^288–311 (peptide, UniProt Q26366 288-311, looked up)
peptide: Ac-CVVFTNYSGDTASQVDEHFSRALN-NH2
notes: Vestigial (Vg), Drosophila melanogaster, UniProt Q26366, residues 288–311 (TONDU domain); also called TONDU domain of Vg; β-strand:α-helix region of Vg; source: synthetic peptide, bought: Biosynthan
B7: Yki^31–79 (peptide, UniProt Q45VV3 31-79, looked up)
peptide: Ac-NNLVVRVNQDTDDNLQALFDSVLNPGDAKRPLQLPLRMRKLPNSFFTPP-NH2
notes: Yorkie (Yki), Drosophila melanogaster, UniProt Q45VV3, residues 31–79; only Yki 30–146 and Vg 263–382 are described as recombinant; source: synthetic peptide, bought: Biosynthan

Legend:
[1] = target: wt^Sd (Scalloped 223–440), N-biotinylated-Avitagged (Drosophila melanogaster) (UniProt P30052); test: SPR; N-biotinylated-Avitagged Sd (wild type or mutant) immobilised on sensor chips; Yki or Vg fragment as analyte; Kd at equilibrium by a standard SPR method
[2] = target: N-terminally V5-tagged Asp272Ala^TEAD4 (full length) (human) (UniProt Q15561); test: co-IP; V5-TEAD4 and (FLAG)3-VGLL2 co-transfected into HEK293FT YAP/TAZ double knockout cells; V5 immunoprecipitation, anti-FLAG Western blot; similar results in wild-type HEK293FT cells
[3] = target: TEAD4 (protein of the SPR and TR-FRET assays) (human); test: FRET or BRET; TR-FRET assay with TEAD4; potency (IC50) of peptides; methodology in Fig. S8
[4] = target: TEAD4 (protein of the SPR and TR-FRET assays) (human); test: SPR; peptides against TEAD4; Kd at equilibrium; peptide stocks in DMSO or in acetonitrile:(water + 1 mM TCEP)
TEAD4 (Homo sapiens) = TEAD4 (Homo sapiens) (UniProt Q15561); conditions: cited from earlier work
[5] = target: T1, wt^Sd (Scalloped 223–440), …; test: SPR; N-biotinylated-Avitagged Sd (wild type or mutant) immobilised on sensor chips; Yki or Vg fragment as analyte; Kd at equilibrium by a standard SPR method; conditions: both partners purified
[6] = target: T1, wt^Sd (Scalloped 223–440), …; test: SPR; N-biotinylated-Avitagged Sd (wild type or mutant) immobilised on sensor chips; Kd by kinetic titration (Kd^KT); conditions: both partners purified
[7] = target: T2, Asp276Ala^Sd (Scalloped 223–440), …; test: as above; conditions: both partners purified
[8] = target: T3, Tyr435His^Sd (Scalloped 223–440), …; test: as above; conditions: both partners purified
[9] = target: TEAD4 (protein of the SPR and TR-FRET assays) (human); test: SPR; peptides against TEAD4; Kd at equilibrium; peptide stocks in DMSO or in acetonitrile:(water + 1 mM TCEP); remark: listed apart in the source
[10] = target: T2, Asp276Ala^Sd (Scalloped 223–440), …; test: SPR; N-biotinylated-Avitagged Sd (wild type or mutant) immobilised on sensor chips; Yki or Vg fragment as analyte; Kd at equilibrium by a standard SPR method; conditions: both partners purified
[11] = target: T3, Tyr435His^Sd (Scalloped 223–440), …; test: as above; conditions: both partners purified

Sequence of TEAD4 (Homo sapiens) (Q15561 whole entry, the tested form may be a part): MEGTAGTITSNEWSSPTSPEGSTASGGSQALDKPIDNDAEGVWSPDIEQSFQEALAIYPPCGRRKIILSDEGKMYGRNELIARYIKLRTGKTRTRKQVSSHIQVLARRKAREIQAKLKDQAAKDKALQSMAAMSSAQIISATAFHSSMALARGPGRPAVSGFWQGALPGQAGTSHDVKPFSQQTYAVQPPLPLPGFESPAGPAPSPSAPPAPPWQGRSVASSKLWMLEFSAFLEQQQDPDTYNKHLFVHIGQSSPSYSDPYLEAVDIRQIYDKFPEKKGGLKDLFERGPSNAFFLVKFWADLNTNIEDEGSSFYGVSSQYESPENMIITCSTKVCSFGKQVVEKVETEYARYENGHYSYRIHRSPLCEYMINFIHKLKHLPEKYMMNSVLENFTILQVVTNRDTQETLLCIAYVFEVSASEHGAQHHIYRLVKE
Sequence of N-terminally V5-tagged Asp272Ala^TEAD4 (full length) (human) (Q15561 whole entry D272A): as the sequence (Q15561 whole entry, the tested form may be a part) above, with D272A counted along it

Molecule	IC50 [3] [nM]	Kd [4] [nM]	Kd [5] [nM]	also measured
Vg^298–337 (from UniProt Q26366 298-337) (peptide)	–	–	–	Kd [1]: 61 nM
(FLAG)3-delΩ^VGLL2 (full length with the Ω-loop deleted) (from UniProt Q8N8G2-1 1-317) (natural protein)	–	–	–	fold reduction of co-immunoprecipitation against wt^TEAD4 with wt^VGLL2 [2]: 2 fold
YAP^85–99 (from UniProt P46937 85-99) (peptide)	98000	58000	–	–
VGLL1 27-51 (from UniProt Q99990)	–	–	–	Kd (TEAD4 (Homo sapiens)): 160 nM
Flyman (hybrid peptide: β-strand:α-helix and Ω-loop of VGLL2 connected by the linker from Vg)	–	4.3	–	–
B1	–	–	69	–
B2	6.3	34	–	–
Ac-PMSNRNFPPSFWNSN-NH2 [Vg^323–337]	160000	–	–	–
B3	–	–	< 2	Kd [6]: 0.38 nM; Kd [7]: 5.5 nM; Kd [8]: 24 nM
B4	–	3.1	< 2	Kd [9]: 4.1 nM; Kd [6]: 1.6 nM
B5	–	–	13	Kd [6]: 13 nM; Kd [10]: 5000 nM; Kd [11]: 13000 nM
Ac-CVLFTYFQGDISSVVDEHFSRALS-NH2 [VGLL2^85–108]	340	590	–	–
Ac-PMSQRSFPASFWNSA-NH2 [VGLL2^135–149]	133000	–	–	–
B6	–	–	291	–
B7	–	–	23	–
